Measurements as given in PMC11188837 (mAbs, 2024).
No end group written: not given here. *: point of attachment. FITC = O=C1OC2(c3ccc(O)cc3Oc3cc(O)ccc32)c2ccc(NC(=S)*)cc21; Ahx = NCCCCCC(=O)O

Columns and labels:
[1] = molecular target: integrin αVβ8 ectodomain (human) (human, UniProt P06756-1;P26012-1); experiment: fluorescence polarisation
[2] = molecular target: integrin αVβ6 ectodomain (human) (human, UniProt P06756-1;P18564-1); experiment: fluorescence polarisation
Sequence of integrin αVβ6 ectodomain (human) (P06756 31-992, chain 1 of 2): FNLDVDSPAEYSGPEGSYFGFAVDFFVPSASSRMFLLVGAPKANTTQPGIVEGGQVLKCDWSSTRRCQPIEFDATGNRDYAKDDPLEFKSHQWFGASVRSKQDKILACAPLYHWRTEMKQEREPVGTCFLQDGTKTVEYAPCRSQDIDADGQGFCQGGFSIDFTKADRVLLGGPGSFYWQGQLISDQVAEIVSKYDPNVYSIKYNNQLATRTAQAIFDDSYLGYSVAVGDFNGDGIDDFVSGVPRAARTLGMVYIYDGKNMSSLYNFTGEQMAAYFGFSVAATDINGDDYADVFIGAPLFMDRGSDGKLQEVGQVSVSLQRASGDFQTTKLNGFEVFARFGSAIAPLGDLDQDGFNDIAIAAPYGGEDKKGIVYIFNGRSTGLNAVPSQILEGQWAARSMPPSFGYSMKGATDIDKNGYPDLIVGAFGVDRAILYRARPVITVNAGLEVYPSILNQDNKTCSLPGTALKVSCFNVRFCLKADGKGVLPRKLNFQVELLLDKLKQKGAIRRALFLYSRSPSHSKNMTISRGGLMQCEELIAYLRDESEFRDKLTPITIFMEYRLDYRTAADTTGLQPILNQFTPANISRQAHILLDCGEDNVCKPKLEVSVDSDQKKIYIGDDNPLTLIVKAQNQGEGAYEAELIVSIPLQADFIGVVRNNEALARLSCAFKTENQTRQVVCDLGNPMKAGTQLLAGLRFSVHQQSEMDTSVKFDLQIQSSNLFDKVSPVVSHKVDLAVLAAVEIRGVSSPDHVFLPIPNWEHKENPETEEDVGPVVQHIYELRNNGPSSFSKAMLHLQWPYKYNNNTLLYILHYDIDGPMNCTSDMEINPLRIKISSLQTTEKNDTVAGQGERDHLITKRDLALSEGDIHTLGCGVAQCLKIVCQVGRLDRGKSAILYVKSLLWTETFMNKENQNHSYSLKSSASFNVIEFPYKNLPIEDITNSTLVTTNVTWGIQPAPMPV
Sequence of integrin αVβ6 ectodomain (human) (P18564 22-709, chain 2 of 2): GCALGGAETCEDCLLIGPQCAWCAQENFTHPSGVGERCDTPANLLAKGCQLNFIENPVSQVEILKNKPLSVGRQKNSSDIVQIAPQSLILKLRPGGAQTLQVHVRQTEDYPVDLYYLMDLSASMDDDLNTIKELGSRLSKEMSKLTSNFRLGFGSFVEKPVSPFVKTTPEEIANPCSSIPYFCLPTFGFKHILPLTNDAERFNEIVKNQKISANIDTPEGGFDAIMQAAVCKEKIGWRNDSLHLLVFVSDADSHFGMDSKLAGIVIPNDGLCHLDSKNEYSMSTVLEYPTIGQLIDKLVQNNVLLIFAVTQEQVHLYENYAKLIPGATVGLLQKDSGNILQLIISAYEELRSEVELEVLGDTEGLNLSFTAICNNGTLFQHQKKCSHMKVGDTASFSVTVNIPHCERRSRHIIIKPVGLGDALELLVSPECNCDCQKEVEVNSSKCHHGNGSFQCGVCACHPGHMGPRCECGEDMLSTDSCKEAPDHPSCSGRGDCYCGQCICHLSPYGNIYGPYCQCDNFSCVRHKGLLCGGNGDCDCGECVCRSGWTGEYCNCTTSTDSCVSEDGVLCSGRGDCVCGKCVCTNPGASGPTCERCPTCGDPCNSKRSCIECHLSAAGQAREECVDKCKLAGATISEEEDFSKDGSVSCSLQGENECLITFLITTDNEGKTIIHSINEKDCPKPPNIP

Sequence of integrin αVβ8 ectodomain (human) (P06756 31-992, chain 1 of 2): as the sequence (P06756 31-992, chain 1 of 2) above
Sequence of integrin αVβ8 ectodomain (human) (P26012 43-684, chain 2 of 2): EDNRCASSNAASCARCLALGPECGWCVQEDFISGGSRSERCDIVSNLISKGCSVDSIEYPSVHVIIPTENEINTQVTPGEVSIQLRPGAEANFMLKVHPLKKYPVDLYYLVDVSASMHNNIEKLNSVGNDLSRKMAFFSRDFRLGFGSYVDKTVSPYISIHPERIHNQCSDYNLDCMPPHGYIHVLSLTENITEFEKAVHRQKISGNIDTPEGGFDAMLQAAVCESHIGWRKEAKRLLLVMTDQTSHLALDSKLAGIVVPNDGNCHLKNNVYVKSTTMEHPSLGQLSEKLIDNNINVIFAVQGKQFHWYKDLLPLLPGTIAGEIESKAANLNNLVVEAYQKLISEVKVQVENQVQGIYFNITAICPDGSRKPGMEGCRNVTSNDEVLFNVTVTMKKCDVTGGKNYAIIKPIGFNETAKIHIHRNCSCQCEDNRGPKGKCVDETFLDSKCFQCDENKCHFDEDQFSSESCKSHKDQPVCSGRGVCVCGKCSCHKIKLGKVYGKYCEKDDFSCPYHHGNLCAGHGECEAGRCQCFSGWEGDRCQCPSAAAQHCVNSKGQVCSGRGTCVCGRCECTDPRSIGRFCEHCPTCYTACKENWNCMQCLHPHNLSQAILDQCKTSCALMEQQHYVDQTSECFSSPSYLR

{FITC-Ahx}-GRGDLGRLKK [FITC-labeled aminocaproic acid-GRGDLGRLKK peptide]: binds [1]; binds [2].
